Source: article PMC10786891, “Massively parallel profiling of RNA-targeting CRISPR-Cas13d”

T1: EsCas13d, nuclease-dead (Eubacterium siraeum, UniProt B0MS50, R295A;H300A;R849A;H854A)
T1 sequence: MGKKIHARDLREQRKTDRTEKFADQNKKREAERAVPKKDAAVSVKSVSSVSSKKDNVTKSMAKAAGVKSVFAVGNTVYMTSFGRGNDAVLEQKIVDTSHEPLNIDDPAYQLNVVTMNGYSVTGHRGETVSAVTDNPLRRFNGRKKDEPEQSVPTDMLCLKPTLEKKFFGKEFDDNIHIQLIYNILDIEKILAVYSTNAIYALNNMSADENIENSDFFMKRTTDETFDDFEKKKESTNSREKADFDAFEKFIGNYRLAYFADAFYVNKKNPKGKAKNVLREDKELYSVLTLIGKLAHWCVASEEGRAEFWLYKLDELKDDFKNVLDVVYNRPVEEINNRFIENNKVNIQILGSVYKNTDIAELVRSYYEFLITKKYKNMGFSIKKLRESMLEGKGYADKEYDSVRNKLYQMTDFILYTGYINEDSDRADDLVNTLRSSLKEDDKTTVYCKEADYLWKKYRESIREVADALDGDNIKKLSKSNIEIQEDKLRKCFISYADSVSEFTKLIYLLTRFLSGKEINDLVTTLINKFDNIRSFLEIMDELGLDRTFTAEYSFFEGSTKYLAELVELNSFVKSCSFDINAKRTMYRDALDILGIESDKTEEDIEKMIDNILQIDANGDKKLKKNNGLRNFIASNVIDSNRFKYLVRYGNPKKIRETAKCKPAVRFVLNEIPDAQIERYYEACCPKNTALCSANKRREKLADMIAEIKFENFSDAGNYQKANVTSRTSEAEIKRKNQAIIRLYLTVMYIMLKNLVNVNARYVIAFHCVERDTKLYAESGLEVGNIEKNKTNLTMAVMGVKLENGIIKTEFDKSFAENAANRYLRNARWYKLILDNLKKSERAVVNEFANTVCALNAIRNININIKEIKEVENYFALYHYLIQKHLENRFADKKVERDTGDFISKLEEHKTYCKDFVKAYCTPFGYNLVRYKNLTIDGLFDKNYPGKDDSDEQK


Target: T1, EsCas13d, nuclease-dead
Assay: crRNA (strand 1, pre-loaded); Mg2+; 40 mM Tris-HCl pH 7.5, 150 mM NaCl, 6 mM MgCl2, 1 mM DTT, 0.1% Tween-20, 0.2 mg/ml BSA; 25 C; 10 min per concentration, then washed
Conditions: tags: His6-TwinStrep-SUMO cleaved; N-terminal SNAP kept (SNAP-Surface 488); label: 3' end held by stalled T7 RNA polymerase

Binder	Kd [nM]
target 1 insU 3' of 17,insC 3' of 3 (mixed) RNA 1: CACCCGUGCAAAAAUGCAGGGGUCUAAAACUGAGCGGAUAACCUCUCUAUGG RNA 2: GGGAAUGGAUCCACAUCUACGAAUUCGUACCAUAGUAGAGGUUAUCCGCUCCACCGAGAUCGGAAGAGCACACGU	29 ± 5
target 1 A1C,C2A (mixed) RNA 1: CACCCGUGCAAAAAUGCAGGGGUCUAAAACUGAGCGGAUAACCUCUCUAUGG RNA 2: GGGAAUGGAUCCACAUCUACGAAUUCGUACCAUAGAGAGGUUAUCCGCUACCCGAGAUCGGAAGAGCACACGU	36 ± 4
target 1 C2U,G15A (mixed) RNA 1: CACCCGUGCAAAAAUGCAGGGGUCUAAAACUGAGCGGAUAACCUCUCUAUGG RNA 2: GGGAAUGGAUCCACAUCUACGAAUUCGUACCAUAGAAAGGUUAUCCGCUUACCGAGAUCGGAAGAGCACACGU	13.7 ± 0.7
target 1 insU 3' of 14,insU 3' of 12 (mixed) RNA 1: CACCCGUGCAAAAAUGCAGGGGUCUAAAACUGAGCGGAUAACCUCUCUAUGG RNA 2: GGGAAUGGAUCCACAUCUACGAAUUCGUACCAUAGAGAUGGUUUAUCCGCUCACCGAGAUCGGAAGAGCACACGU	26.6 ± 2.7
target 1 U3A,G5A (mixed) RNA 1: CACCCGUGCAAAAAUGCAGGGGUCUAAAACUGAGCGGAUAACCUCUCUAUGG RNA 2: GGGAAUGGAUCCACAUCUACGAAUUCGUACCAUAGAGAGGUUAUCCACACACCGAGAUCGGAAGAGCACACGU	53 ± 8
target 1 insA 3' of 12,insG 3' of 4 (mixed) RNA 1: CACCCGUGCAAAAAUGCAGGGGUCUAAAACUGAGCGGAUAACCUCUCUAUGG RNA 2: GGGAAUGGAUCCACAUCUACGAAUUCGUACCAUAGAGAGGAUUAUCCGCGUCACCGAGAUCGGAAGAGCACACGU	16.2 ± 1.1
target 1 G12A,G13U (mixed) RNA 1: CACCCGUGCAAAAAUGCAGGGGUCUAAAACUGAGCGGAUAACCUCUCUAUGG RNA 2: GGGAAUGGAUCCACAUCUACGAAUUCGUACCAUAGAGAUAUUAUCCGCUCACCGAGAUCGGAAGAGCACACGU	14.6 ± 1.4
target 1 insA 3' of 8,insG 3' of 3 (mixed) RNA 1: CACCCGUGCAAAAAUGCAGGGGUCUAAAACUGAGCGGAUAACCUCUCUAUGG RNA 2: GGGAAUGGAUCCACAUCUACGAAUUCGUACCAUAGAGAGGUUAUACCGCUGCACCGAGAUCGGAAGAGCACACGU	10 ± 0.7
target 1 insG 3' of 16,insU 3' of 14 (mixed) RNA 1: CACCCGUGCAAAAAUGCAGGGGUCUAAAACUGAGCGGAUAACCUCUCUAUGG RNA 2: GGGAAUGGAUCCACAUCUACGAAUUCGUACCAUAGAGGAUGGUUAUCCGCUCACCGAGAUCGGAAGAGCACACGU	25.4 ± 2.4
target 1 G5U,G13A (mixed) RNA 1: CACCCGUGCAAAAAUGCAGGGGUCUAAAACUGAGCGGAUAACCUCUCUAUGG RNA 2: GGGAAUGGAUCCACAUCUACGAAUUCGUACCAUAGAGAAGUUAUCCUCUCACCGAGAUCGGAAGAGCACACGU	11.5 ± 0.5
target 1 insC 3' of 13,insU 3' of 13 (mixed) RNA 1: CACCCGUGCAAAAAUGCAGGGGUCUAAAACUGAGCGGAUAACCUCUCUAUGG RNA 2: GGGAAUGGAUCCACAUCUACGAAUUCGUACCAUAGAGAGCUGUUAUCCGCUCACCGAGAUCGGAAGAGCACACGU	8.3 ± 0.4
target 1 U10A,C22A (mixed) RNA 1: CACCCGUGCAAAAAUGCAGGGGUCUAAAACUGAGCGGAUAACCUCUCUAUGG RNA 2: GGGAAUGGAUCCACAUCUACGAAUUCGUAACAUAGAGAGGUAAUCCGCUCACCGAGAUCGGAAGAGCACACGU	12.5 ± 1.2
target 1 insU 3' of 12,insG 3' of 2 (mixed) RNA 1: CACCCGUGCAAAAAUGCAGGGGUCUAAAACUGAGCGGAUAACCUCUCUAUGG RNA 2: GGGAAUGGAUCCACAUCUACGAAUUCGUACCAUAGAGAGGUUUAUCCGCUCGACCGAGAUCGGAAGAGCACACGU	6.9 ± 0.6
target 1 insU 3' of 13,insG 3' of 2 (mixed) RNA 1: CACCCGUGCAAAAAUGCAGGGGUCUAAAACUGAGCGGAUAACCUCUCUAUGG RNA 2: GGGAAUGGAUCCACAUCUACGAAUUCGUACCAUAGAGAGUGUUAUCCGCUCGACCGAGAUCGGAAGAGCACACGU	21 ± 4
target 1 C2G,G17U (mixed) RNA 1: CACCCGUGCAAAAAUGCAGGGGUCUAAAACUGAGCGGAUAACCUCUCUAUGG RNA 2: GGGAAUGGAUCCACAUCUACGAAUUCGUACCAUAUAGAGGUUAUCCGCUGACCGAGAUCGGAAGAGCACACGU	14.5 ± 0.7
target 1 C2A (mixed) RNA 1: CACCCGUGCAAAAAUGCAGGGGUCUAAAACUGAGCGGAUAACCUCUCUAUGG RNA 2: GGGAAUGGAUCCACAUCUACGAAUUCGUACCAUAGAGAGGUUAUCCGCUAACCGAGAUCGGAAGAGCACACGU	9.3 ± 0.9
target 1 insA 3' of 10,insG 3' of 4 (mixed) RNA 1: CACCCGUGCAAAAAUGCAGGGGUCUAAAACUGAGCGGAUAACCUCUCUAUGG RNA 2: GGGAAUGGAUCCACAUCUACGAAUUCGUACCAUAGAGAGGUUAAUCCGCGUCACCGAGAUCGGAAGAGCACACGU	6.44 ± 0.26
target 1 insC 3' of 15,insG 3' of 11 (mixed) RNA 1: CACCCGUGCAAAAAUGCAGGGGUCUAAAACUGAGCGGAUAACCUCUCUAUGG RNA 2: GGGAAUGGAUCCACAUCUACGAAUUCGUACCAUAGAGCAGGUGUAUCCGCUCACCGAGAUCGGAAGAGCACACGU	41 ± 6
target 1 insC 3' of 11,insU 3' of 9 (mixed) RNA 1: CACCCGUGCAAAAAUGCAGGGGUCUAAAACUGAGCGGAUAACCUCUCUAUGG RNA 2: GGGAAUGGAUCCACAUCUACGAAUUCGUACCAUAGAGAGGUCUAUUCCGCUCACCGAGAUCGGAAGAGCACACGU	40 ± 17
target 1 insG 3' of 16,insU 3' of 16 (mixed) RNA 1: CACCCGUGCAAAAAUGCAGGGGUCUAAAACUGAGCGGAUAACCUCUCUAUGG RNA 2: GGGAAUGGAUCCACAUCUACGAAUUCGUACCAUAGAGUGAGGUUAUCCGCUCACCGAGAUCGGAAGAGCACACGU	44 ± 8
target 1 insG 3' of 6,insU 3' of 2 (mixed) RNA 1: CACCCGUGCAAAAAUGCAGGGGUCUAAAACUGAGCGGAUAACCUCUCUAUGG RNA 2: GGGAAUGGAUCCACAUCUACGAAUUCGUACCAUAGAGAGGUUAUCCGGCUCUACCGAGAUCGGAAGAGCACACGU	16.4 ± 0.9
target 1 insA 3' of 10,insC 3' of 10 (mixed) RNA 1: CACCCGUGCAAAAAUGCAGGGGUCUAAAACUGAGCGGAUAACCUCUCUAUGG RNA 2: GGGAAUGGAUCCACAUCUACGAAUUCGUACCAUAGAGAGGUUACAUCCGCUCACCGAGAUCGGAAGAGCACACGU	12.9 ± 1.3
target 1 U8A,C22G (mixed) RNA 1: CACCCGUGCAAAAAUGCAGGGGUCUAAAACUGAGCGGAUAACCUCUCUAUGG RNA 2: GGGAAUGGAUCCACAUCUACGAAUUCGUAGCAUAGAGAGGUUAACCGCUCACCGAGAUCGGAAGAGCACACGU	68 ± 13
target 1 insU 3' of 9,insA 3' of 4 (mixed) RNA 1: CACCCGUGCAAAAAUGCAGGGGUCUAAAACUGAGCGGAUAACCUCUCUAUGG RNA 2: GGGAAUGGAUCCACAUCUACGAAUUCGUACCAUAGAGAGGUUAUUCCGCAUCACCGAGAUCGGAAGAGCACACGU	8 ± 1
target 1 insU 3' of 14,insU 3' of 2 (mixed) RNA 1: CACCCGUGCAAAAAUGCAGGGGUCUAAAACUGAGCGGAUAACCUCUCUAUGG RNA 2: GGGAAUGGAUCCACAUCUACGAAUUCGUACCAUAGAGAUGGUUAUCCGCUCUACCGAGAUCGGAAGAGCACACGU	57 ± 8
target 1 A18U,C22U (mixed) RNA 1: CACCCGUGCAAAAAUGCAGGGGUCUAAAACUGAGCGGAUAACCUCUCUAUGG RNA 2: GGGAAUGGAUCCACAUCUACGAAUUCGUAUCAUUGAGAGGUUAUCCGCUCACCGAGAUCGGAAGAGCACACGU	74 ± 10
target 1 insC 3' of 17,insA 3' of 4 (mixed) RNA 1: CACCCGUGCAAAAAUGCAGGGGUCUAAAACUGAGCGGAUAACCUCUCUAUGG RNA 2: GGGAAUGGAUCCACAUCUACGAAUUCGUACCAUAGCAGAGGUUAUCCGCAUCACCGAGAUCGGAAGAGCACACGU	28.6 ± 2.3
target 1 C2A,U19C (mixed) RNA 1: CACCCGUGCAAAAAUGCAGGGGUCUAAAACUGAGCGGAUAACCUCUCUAUGG RNA 2: GGGAAUGGAUCCACAUCUACGAAUUCGUACCACAGAGAGGUUAUCCGCUAACCGAGAUCGGAAGAGCACACGU	22.1 ± 1.6
